Reference: publication PMC4820838, “Quantifying the dynamics of the oligomeric transcription factor STAT3 by pair correlation of molecular brightness” (Nature Communications, 2016)

Biological target: the molecule itself
Assay: pair correlation of molecular brightness (pCOMB); pair correlation of brightness fluctuations along a 64-pixel confocal line scan from cytoplasm to nucleus of live HeLa cells; amplitude calibrated against free GFP, YFP or mCherry; cells stimulated with 10 nM oncostatin M for 15 min

B1: STAT3-DB-GFP (natural protein, UniProt P40763 1-770, looked up)
chain: MAQWNQLQQLDTRYLEQLHQLYSDSFPMELRQFLAPWIESQDWAYAASKESHATLVFHNLLGEIDQQYSRFLQESNVLYQHNLRRIKQFLQSRYLEKPMEIARIVARCLWEESRLLQTAATAAQQGGQANHPTAAVVTEKQQMLEQHLQDVRKRVQDLEQKMKVVENLQDDFDFNYKTLKSQGDMQDLNGNNQSVTRQKMQQLEQMLTALDQMRRSIVSELAGLLSAMEYVQKTLTDEELADWKRRQQIACIGGPPNICLDRLENWITSLAESQLQTRQQIKKLEELQQKVSYKGDPIVQHRPMLEERIVELFRNLMKSAFVVERQPCMPMHPDRPLVIKTGVQFTTKVRLLVKFPELNYQLKIKVCIDKDSGDVAALRGSRKFNILGTNTKVMNMEESNNGSLSAEFKHLTLREQRCGNGGRANCDASLIVTAALHLITFETEVYHQGLKIDLETHSLPVVVISNICQMPNAWASILWYNMLTNNPKNVNFFTKPPIGTWDQVAEVLSWQFSSTTKRGLSIEQLTTLAEKLLGPGVNYSGCQITWAKFCKENMAGKGFSFWVWLDNIIDLVKKYILALWNEGYIMGFISKERERAILSTKPPGTFLLRFSESSKEGGVTFTWVEKDISGKTQIQSVEPYTKQQLNNMSFAEIIMGYKIMDATNILVSPLVYLYPDIPKEEAFGKYCRPESQEHPEADPGSAAPYLKTKFICVTPTTCSNTIDLPMSPRTLDSLMQFGNNGEGAEPSAGGQFESLTFDMELTSECATSPM
notes: cloned by Ivan Ng in the laboratory of Marie Bogoyevitch and David Jans; source: HeLa cells, transiently transfected, in live cells
  stoichiometry N: 2
